Key:
S. aureus = experiment: Opsonophagocytosis activity (OPA) assay with HL60_DMF cells; assay type: cell-based; conditions: FIGS. 4 and 5
Description: An opsonophagocytosis activity (OPA) assay was developed to evaluate an antibody's ability to opsonophagocytose. The assay measures the ability of antibodies to bind and fix complement (C′) to the bacterial surface, which results in an increase in the level of phagocytosis of these bacteria by granulocytic effecter cells.
ORF0657n is an iron regulated protein on the surface of S. aureus that appears to be involved in heme/Fe acquisition. […] For this assay the strain is iron starved to increase the expression of ORF0657n. This strain also lacks the ability to produce Protein A. Protein A can bind to the Fc portion of any IgG and the presence of this non-specifically bound antibody could interfere in the OPA reaction.
HL60 cells were exposed to dimethylformamide (DMF) for five to six days to induce the cells to differentiate towards a more granulocytic phenotype. Next, 2% C′-sufficient gnotobiotic pig serum was added to the antibody bound cells. Finally, the antibody and C′ exposed cells were then labeled with the fluorescent chemical 5′, 6′-FAM-SE.
After incubation of opsonized, fluorescently-labeled bacteria and unlabeled HL60_DMF cells, the level of phagocytosis was determined by measuring the percentage of HL60_DMF cells containing labeled bacteria by flow cytometry. […]

ORF0657n = conditions: Luminex binding assay
Description: Construction of ORF0657n-bead—9.4×10^6 Radix maleimide microspheres (Georgetown, Tex.) were coupled to 750 μg ORF0657n-Se (ORF0657n containing carboxyl terminal cysteine group) at room temperature for 2 hours. Beads were washed 3 times with 1 ml PBS and then quenched with 1 M N-acetyl-L-cysteine (Sigma) for 2 hours at room temperature. Microspheres were washed 3× in PBS. Beads were enumerated and re-suspended at a final concentration of 500 microspheres/μl.
Detection of Competition between CAT ScFvs and CAT mAbs—CAT scFvs were individually competed against the CAT antibodies in the Luminex cLIA assay. ScFvs were diluted 1:4, 1:8, 1:16 and 1:32 in PBS-TBN (0.05% Tween 20, 1% BSA and 0.05% sodium azide) and incubated with 5000 ORF0657n-coupled microspheres in a Multiscreen filter plate (Millipore) for 1 hour, 15 minutes at room temperature. The beads were then washed 3× with PBS with 0.05% Tween 20 (PBS/Tween20). The individual antibodies were diluted in PBS-TBN to a final concentration of 2 μg/ml and added to separate plates. […] Microspheres were re-suspended in PBS/Tween20 and the median fluorescent signal was read using a Bio-Plex luminometer (BioRad). ScFvs were considered competitive if the median fluorescent signal was reduced by at least 30% over the signal detected for non-competitive scFvs for at least two dilutions.

B1: mAb CS-D10: IgG1 antibody, light chain variable region SEQ ID NO: 5, heavy chain variable region SEQ ID NO: 6, lambda (antibody, V domains shown)
VH: QVQLQESGPGLVKPSETLSLTCTVSGGSIRSSSYYWGWFRQTPGKGLEWLGNVFFSGSAYYNPSLKSRVTISIDTSENQSSLKLTSVTAADTAVYYCARPQAYSHDSSGHSPFDLWGRGTMVTVSS
VL: QAVLTQPSSVSGAPGQRVTISCTGGSSNIGAGYDVHWYQQIPGTAPKLLIYGNSNRPSGVPDRFSGSKSGTSASLAITGLQAEDEADYYCQSYDSSLNGPVVFGGGTKVTVLG
modifications: mAb CS-C10 heavy chain variable region; mAb CS-C10 light chain variable region
S. aureus
  opsonic activity compared to isotype control: higher opsonic activity compared to their IgG1 isotype control
ORF0657n
  mAbs compete for binding to the same epitope: compete for binding to the same epitope
